Experiment: soluble on expression in E. coli; label from the status in PepcDB or PDB records

Row | Sequence | soluble on expression in E. coli
1 | MSSDANSDDPFSKPIVRKRFQATLAQQGIEDDQLPSVRSSDSPDVPDTPDVPVNQLSSPPLSLPETLSEGNAETNLSDDSEPEMLSQSSTSSLNRRMEDSAIDPSRGTRKSQSRGFDYDPAGERTTAPVQKKKKDEIDMGGAKFFPKQEKKHVYTHKWTTEEDDEDEKTISSSSNRYSSRPNQPAVSARPRQPVYATTSTYSKPLASGYGSRVRHIKEANELRESGEYDDFKQDLVYILSSLQSSDASMKVKCLSAISLAKKCVSPDFRQFIKSENMTKSIVKALMDSPEDDLFALAASTVLYLLTRDFNSIKIDFPSLRLVSQLLRIEKFEQRPEDKDKVVNMVWEVFNSYIEKQEVGGQKVSFDMRKESLTPSSLIIEALVFICSRSVNDDNLKSELLNLGILQFVVAKIETNVNLIADNADDTYSILILNRCFRILESSSVFHKKNQAFLISHRSNILISSLAKFLQVILDRVHQLAEEEVKKYISCLALMCRLLINISHDNELCCSKLGQIEGFLPNAITTFTYLAPKFGKENSYDINVMMTSLLTNLVERCNANRKVLIAQTVKMVIPGHDVEEVPALEAITRLFVYHESQAQIVDADLDRELAFDEGGCGDEEEEEEGGDESSDEDGVRKDGRLDRNKMDRMDQVDVVHALQQVMNKASAHMEGSVIASYHALLVGFVLQQNEDHLDEVRKHLPGKNFQNMISQLKRLYDFTKATMAKRVESNSGFRAIERVIEYLERLE | not soluble
2 | ADKLRAACIRIQKTIRGWLLRKRYLCMQRAAITVQRYVRGYQARCYAKFLRRTKAATT | soluble
3 | EFSSEELIRMSNYLNELLVGVPVGQVRTRILEEMRNEKVLYDKLLARALQLSEQSLNDDGAQIFIEGQTNILEQPEFADSRRMRDLFRAFEEKNQLVGLLDRCLNAQGVQIFIGAETHLSQMEGLSIITSTYLTGKNTLGVLGVIGPTRMGYAKVIPIVDYTAKLVSRLLEG | not soluble
4 | MDKLDTLTLFVRIVERGSFSAAAADLGVSRPVATAAIKALEVSLGARLLHRTTRHVRPTAEGSLYYQRCVSILAALEEANRSAGGSISGTIRVDVAGNLARTLLLPALPQFLARYPDITLQIGESERDVDLVREGVDCVIRGGHLPDSEMICRPLAGLQEITCASPTYLARYGTPHTIEGLTGHVMIGFVSSRTQRTLPLSFTQDGRQSEVSLPCRLLTSDADVGAEAARLGFGLYQAPLPRLEADLASGALTEVLADFRPAPLPLSLLYPSNRQLSARVQVFIDWVTALMKPPLAQQASGRLK | not soluble
5 | MTPTTTPVSNPDALSTGTQDVHTLKGTLQRLAPGTPLRDGLDRIVRGHTGALIVIGDDENVSSICDGGFEFDVSFAATRLRELCKMDGAVILSSDLERIKRANVQLLPSPTWPTQESGTRHRSAERTALHTGVPVIAVSESQNTITLYVEGKSHMLEQPAALLNRANQALGTMERYRDRLDQVNNRLHLAELHSYVTVIDVVSVIQREEMLRRVGEIIDGDVLELGKDAKEIQIQLSELRGDNDRERESIIADYLVTDGIPADEEIHAALEAISHLDDKALLNPANIARVLGLPPTEEALDEPVTPRGYRTLNRIPRVQKFLMDKLIVEFGNLDALLNASVEDLSAVDGVGSLWARHITDGLGRLS | not soluble
6 | LSFYHPEDRETVSDAVDAALNDGDPYDLEVRLITARGNHRWVRTRGKRVEGAEKPTVRGFIQDITEQKER | not soluble
7 | MAGDPMITVVGVRFKKAGKIYYFSPGDLNINKGDDVIVETARGIEYGNCVIGLKQVGEESIVSPLKSVIRVATDEDEIKYRENKNKEKEAFNICLSKIKKHELVMKLIDVEYTFDNNKIIFYFTAEGRVDFRELVKDLASVFRTRIELRQIGVRDEAKMIGGFGVCGRPMCCALYLGDFAPVSIKMAKEQNLSLNPSKISGVCGRLMCCLNYEQETYETIRKRMPKVGSIVSTKEYGKAEVVDNNIIKEAVKIKFTAEDGESISEAEVHIKDLKLISGSYEGNVDESQIKLELEDVDAKEVKELFKTDLEHHHHHH | not soluble
8 | MSDRHMSSIFPECDHLKQIYDKCFTEFFQKFITPNYRHQYAVNPCERLHDVYKRCVEERLATQRPFEIDLDEIRKEYLNTDDDKLKDRQNNQKTNSENKCSSS | not soluble
9 | MNFKLNNTLSNEINTLIIGIPEHLNQLERISFNHIDITESLERLKHQHIIGSKVGKIYTTAFDVQDQTYRLITVGLGNLKTRSYQDMLKIWGHLFQYIKSEHIEDTYLLMDSFISKYDQLSDVLMACGIQSERATYEFDHYKSSKKAPFKTNLNLISESLIELDFIHEGISIGQSINLARDFSNMPPNVLTPQTFAEDIVNHFKNTKVKVDVKDYDTLVSEGFGLLQAVGKGSKHKPRLVTITYNGKDKDEAPIALVGKGITYDSGGYSIKTKNGMATMKFDMCGAANVVGIIEAASRLQLPVNIVGVLACAENMINEASMKPDDVFTALSGETVEVMNTDAEGRLVLADAVFYANQYQPSVIMDFATLTGAAIVALGDDKAAAFESNSKVILNDILQISSEVDEMVFELPITATERASIKHSDIADLVNHTNGQGKALFAASFVTHFSGQTPHIHFDIAGPATTNKASYNGPKGPTGFMIPTIVQWLKQQ | not soluble
10 | MGSDKIHHHHHHATVTDSASTDIGIGFSGHGPGTTPGPLDIQWAPIGLDFSNSNMVNTTAVQAFPETTGTNKYVVVSEKRSNEPTREWSLTAQLSDLTNAGGSETLTGAGLKFDAAVKGYTGTNTPESPGSIVDKGARTATVNASSQSVTAGAAAVPVMKDAGTGGASFLGSTAMEMSNVKLEVPANAAKINQQYSGTLTWSLNDTI | not soluble
11 | MGSDKIHHHHHHMNNINDSSAIHITPETFVKQIRSLGRYNFPEPALVDPDGIGIVGIGGNLAPETLISAYAQGLFPWFNDDEPIAWWCPEPRCVMQPTDYQPSKSLRKQANNARWQLTLNQAFNEVIHACSLPRSNGLPEGEHTWIHDDMIEAYNELHAQGFAHSVEVWDDQGQLVGGLYGLKIGSIYFGESMFHIASNASKLAFWGLMRLCTQSNVTLVDCQLPNEHLMSLGAITLSRTEFLTQLDTLISNGSDAWHKNSHRPLAVSLLGNLQPWQLNP | not soluble
12 | MLAAFISRVLRRVAQKSARRVLVASRNSSNDATFEIKKCDLYLLEEGPPVTTVLTRAEGLKYYRMMLTVRRMELKADQLYKQKFIRGFCHLCDGQEACCVGLEAGINPSDHVITSYRAHGVCYTRGLSVRSILAELTGRRGGCAKGKGGSMHMYTKNFYGGNGIVGAQGPLGAGIALACKYKGNDEICLTLYGDGAANQGQIAEAFNMAALWKLPCVFICENNLYGMGTSTERAAASPDYYKRGNFIPGLKVDGMDVLCVREATKFAANYCRSGKGPILMELQTYRYHGHSMSDPGVSYRTREEIQEVRSKRDPIIILQDRMVNSKLATVEELKEIGAEVRKEIDDAAQFATTDPEPHLEELGHHIYSSDSSFEVRGANPWIKFKSVS | soluble
13 | MGSDKIHHHHHHMLRSLPVLMYHYISRVHDSIAVHPDQFEDHCRGMAAEGWRGVSLAEAEAFLAEGTPLPERSVLITFDDGFLDNYVHALPILEKYGHCGTVFATAGKLETAAGLRPTLADVWSGRIPAEGLPRVDAPFVKHRLGFDERHDLFLNWDEARHAESTGTLAVAAHSMWHRSVFTSASYEGFYAPQRRGRTFDRVEGDVPWGLPRFKVGPALRERAFLPSAELLHAIRETVPQDKDGAYAFFSDTAATERLMHTVEAFGADGLGRFETDAERTERMYREMRDCKQLLENELGHPVTTFCWPWGAFCDEALAIGRELGFRVFLTTLMGSNPPSAPLAVHRFKAKAKPWSWLRLRLHVYSRPLLANLYARMRL | not soluble
14 | MLSEVLLVSAPGKVILHGEHAVVHGKVALAVSLNLRTFLRLQPHSNGKVDLSLPNIGIKRAWDVARLQSLDTSFLEQGDVTTPTSEQVEKLKEVAGLPDDCAVTERLAVLAFLYLYLSICRKQRALPSLDIVVWSELPPGAGLGSSAAYSVCLAAALLTVCEEIPNPLKDGDCVNRWTKEDLELINKWAFQGERMIHGNPSGVDNAVSTWGGALRYHQGKISSLKRSPALQILLTNTKVPRNTRALVAGVRNRLLKFPEIVAPLLTSIDAISLECERVLGEMGEAPAPEQYLVLEELIDMNQHHLNALGVGHASLDQLCQVTRARGLHSKLTGAGGGGCGITLLKPGLEQPEVEATKQALTSCGFDCLETSIGAPGVSIHSATSLDSRVQQALDGL | soluble

From the DeepSol protein solubility set
